Measured values reported in article PMC3338918 (Angiogenesis, 2012).

T1: hVEGFR3-hFc (human, UniProt P35916 25-775)
T1 construct: human VEGFR3; source: bought: R&D Systems
T1 sequence (looked up): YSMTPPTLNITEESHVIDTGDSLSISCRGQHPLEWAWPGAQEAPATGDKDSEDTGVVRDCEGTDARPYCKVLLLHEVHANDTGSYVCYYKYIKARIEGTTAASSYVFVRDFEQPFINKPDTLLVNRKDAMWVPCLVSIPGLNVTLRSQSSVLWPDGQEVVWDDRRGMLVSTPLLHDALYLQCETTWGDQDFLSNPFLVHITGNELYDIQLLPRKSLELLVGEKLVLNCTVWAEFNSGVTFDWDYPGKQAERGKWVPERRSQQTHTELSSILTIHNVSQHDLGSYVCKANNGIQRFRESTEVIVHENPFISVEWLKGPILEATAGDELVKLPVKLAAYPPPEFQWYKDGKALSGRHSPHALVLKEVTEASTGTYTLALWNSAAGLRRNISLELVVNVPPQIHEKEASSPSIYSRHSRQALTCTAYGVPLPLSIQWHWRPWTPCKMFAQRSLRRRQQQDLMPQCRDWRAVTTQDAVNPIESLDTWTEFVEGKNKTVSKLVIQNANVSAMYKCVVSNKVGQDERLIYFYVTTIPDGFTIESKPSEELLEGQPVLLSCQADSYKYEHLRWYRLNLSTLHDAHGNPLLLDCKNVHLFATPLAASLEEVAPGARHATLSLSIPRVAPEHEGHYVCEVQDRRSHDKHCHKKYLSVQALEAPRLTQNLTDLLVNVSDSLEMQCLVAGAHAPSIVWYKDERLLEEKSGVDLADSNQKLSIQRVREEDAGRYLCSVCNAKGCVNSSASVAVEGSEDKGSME


Target: T1, hVEGFR3-hFc
Assay: SPR; Biacore 3000, CM5 chip, 25°C, HBS-T (10 mM Hepes, 150 mM NaCl, 3.4 mM EDTA, 0.05% polysorbate 20, pH 7.4); VEGF Trap or receptor-Fc captured at low density on amine-coupled Protein A, ligands injected (1.0–0.062 nM VEGF-A, 2.5–0.156 nM VEGF-B(10-108), 5.0–0.078 nM PlGF); kd of VEGF-A ligands by the 'fixed kd' procedure on a Biacore 2000 (~2–3 h); KD = kd/ka
Conditions: both partners purified

binding result | Binder
binds | human VEGF-D (ligand, UniProt O43915 89-205, looked up, human VEGF-D; source: bought: R&D Systems) FAATFYDIETLKVIDEEWQRTQCSPRETCVEVASELGKSTNTFFKPPCVNVFRCGGCCNEESLICMNTSTSYISKQLFEISVPLTSVPELVPVKVANHTGCKCLPTAPRHPYSIIRR
binds | human VEGF-C (ligand, UniProt P49767 112-227, looked up, human VEGF-C; source: bought: R&D Systems) AHYNTEILKSIDNEWRKTQCMPREVCIDVGKEFGVATNTFFKPPCVSVYRCGGCCNSEGLQCMNTSTSYLSKTLFEITVPLSQGPKPVTISFANHTSCRCMSKLDVYRQVHSIIRR
